Assay: yeast display, Sf9 membrane polyspecificity reagent, FACS + sequencing; frameworks hold sequencing errors
Summary of the method: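 A nanobody's polyreactivity label depends on the gate it was sorted from. Yeast display cells were stained with 10% biotinylated, detergent-solubilized Sf9 membrane reagent for 1 hour at 4 °C, enriched on streptavidin microbeads and sorted by FACS. The low and high (top ~1%) gates were set on anti-HA fluorescence for expression and streptavidin fluorescence for reagent binding.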

QVQLVESGGGLVQAGGSLRLSCAASGLTFYYYAMGWYRQAPGKERELVASITKRGGSTYYADSVKGRFTISRDNAKNTVYLQMNSLKPEDTAVYYCAAQYRSQGQPKGGVLYYYWGQGTQVTVSS
polyreactivity (PSR sort gate): high polyreactivity

QVQLVESGGGLVQAGGSLRLSCAASGLTFYYYAMGWYRQSPGKEREFVAAISRSGGTTYYADSVKGRFTISRDNAKNTVYLQMNSLKPEDTAVYYCAKASRYWSLYYWGQGTQVTVSS
polyreactivity (PSR sort gate): high polyreactivity

QVQLVESGGGLVQAGGSLRLSCAASGLTFYYYTMGWYRQAPGKERELVAAIDNGGGTNYADSVKGRFTISRDNAKNTVYLQMNSLKPEDTAVYYCAADRSYYIIIGYDLFAYYYWGQGTQVTVSS
polyreactivity (PSR sort gate): low polyreactivity

QVQLVESGGGLVQAGGSLRLSCAASGLTFYYYVMGWYRQAPGKERELVAAISYSGGRTYYADSVKGRFTISRDNAKNTVYFQMNSLKPEDTEVYYCAAQSRYGGKFYYWGQGTQVTVSS
polyreactivity (PSR sort gate): high polyreactivity

QVQLVESGGGLVQAGGSLRLSCAASGLTIFVYAMGWYRQAPGKERELVAAISDSGGSTYYADSVKGRFTISRDNAKNTVYLQMNSLKPEDSAVYYCAGNSSTYPSDDSYDYWGQGTQVTVSS
polyreactivity (PSR sort gate): low polyreactivity

QVQLVESGGGLVQAGGSLRLSCAASGLTINYYAMGLYRQAPGKERELVAAITWRGGSTYYADSVKGRFTISRDNAKNTVYLQMNSLKPEDTAVYYCAADPGPYGYYYWGQGTQVTVSS
polyreactivity (PSR sort gate): low polyreactivity

QVQLVESGGGLVQAGGSLRLSCAASGLTIRRYVMGWYRQAPGKERELVAAINWNGGSTYYADSVKGRFTISRDNAKNTVYLQMNSLKPEDTAVYYCAARSTYVYDYNYWGQGTQVTVSS
polyreactivity (PSR sort gate): high polyreactivity

QVQLVESGGGLVQAGGSLRLSCAASGLTISRYAMGWYRQAPGKERELVAAITSIGGSTYYADSVKGRFTISRDNAKNTVYLQMNSLKPVDTAVYYCACLRCLFPGRFDYWGQSTQVTVSS
polyreactivity (PSR sort gate): high polyreactivity

QVQLVESGGGLVQAGGSLRLSCAASGLTITYNAMGWYRQAPGKERELVAAISWSGDSTYADSVKGRFTISRDNAKNTVYLQKNSLKPEDTAVYYCAVPKYYYYVSRFNYWGQGTQVTVSS
polyreactivity (PSR sort gate): high polyreactivity

QVQLVESGGGLVQAGGSLRLSCAASGLTIWRYAMGWYIQAPGKERDLLAAISRSGIRTYYADSVKGRFTISRDTAKITVYLQMNSLKPEDTAVYYCAADSNAYITGRDYWGQVTQVTVSS
polyreactivity (PSR sort gate): high polyreactivity

QVQLVESGGGLVQAGGSLRLSCAASGLTLAPYAMGWYRQAPGKERELVAAITFSGGSTYYADSVKGRFTISRDNAKNTVYLQMNSLKPEDTAVYYCARDTWAYKNGYPYYSWGQRTQVTVSS
polyreactivity (PSR sort gate): low polyreactivity

QVQLVESGGGLVQAGGSLRLSCAASGLTLGRNAMGWYRQAPGKERELVAAISYGGGSTYYADSVKGRFTISRDNAKNTVYLQMNCLKPEDTAVYYCAADGWRTYGYYEYDYWGQGTQVTVSS
polyreactivity (PSR sort gate): low polyreactivity

QVQLVESGGGLVQAGGSLRLSCAASGLTLIRYAMGWYRQAPGKERELVAAISWSGGSTYYADSVKGRFTISRDNAKNTVYLQMNSLKPEDTAVYYCNTVYRYPDEYDYWGQGTQVTVSS
polyreactivity (PSR sort gate): high polyreactivity

QVQLVESGGGLVQAGGSLRLSCAASGLTLTGYAMGWYRQAPGKERELVAAISQDGGNTYYADSVKGRFTISRDNAKNTVYLQMNSLKREDTAVYYCAAVGRAKYYYWGQGTQVTVSS
polyreactivity (PSR sort gate): low polyreactivity

QVQLVESGGGLVQAGGSLRLSCAASGLTLTHYAMGWYRQAPGKERELVAAISSSGGRTYYADSVKGRFTISRDNAKNTVYLQMNSLKPEDTAVYYCAARVIASRGRYGYWGQGTQVTVSS
polyreactivity (PSR sort gate): high polyreactivity

QVQLVESGGGLVQAGGSLRLSCAASGLTQYKNGMGWYRQAPGKERELVAVISRSGGRTYYADSVKGRFTISRDNAKNTVYLQMNSLKPEDTAVYYCAARQYGPRYTYYYWGQGTQVTVSS
polyreactivity (PSR sort gate): high polyreactivity

QVQLVESGGGLVQAGGSLRLSCAASGLTSRPYVMGWYRQAPGKERDLVAAISQTGGRTYYADSVKGRFTISRDNAKNTVYLQMNSLKPEDTAVYDCAAKYSNGSGFDYWGQGTQVTVSS
polyreactivity (PSR sort gate): high polyreactivity

QVQLVESGGGLVQAGGSLRLSCAASGLTSVTYAMGWYRQAPGKERELVAAITSRAGSTYYADSVKGRFTISRDNAKNTVYLQMNSLKPEDTAVYYCAKDIIRKVYAGYVGRYDYWGQGTQVTVSS
polyreactivity (PSR sort gate): low polyreactivity

QVQLVESGGGLVQAGGSLRLSCAASGLTSYDYGMGWYRPAPGIERELVAAITWSGGSTYYADSVKGRFTISRDNAKNTVYLQMNSLKPEDTAVYYCAADTWGYGWYGYWGHGTQVTVSS
polyreactivity (PSR sort gate): low polyreactivity

QVQLVESGGGLVQAGGSLRLSCAASGLTVNRYALGWYRQAPGKERELVASIRWSGGSTYYADSVKGRFTISRDNAKNTVYLQMNSLKPEDTAVYYCAKSIASAAYDSWGQGTQVTVSS
polyreactivity (PSR sort gate): low polyreactivity

QVQLVESGGGLVQAGGSLRLSCAASGLTVYYYAMGWYRQAPGKERELVASISRSGGSTYYADSVKGSFTISRDNAKNTVYLQMNSLKPEDTAVYYCNVSVYRCTVKGTFDMDHWGQGTQVTVSW
polyreactivity (PSR sort gate): high polyreactivity

QVQLVESGGGLVQAGGSLRLSCAASGLTYAYNAMGGSRQAPGKERELVAAISKRGGSTYYADSVKGRFTISRDNAKNTVYLQMNSLKPEDTAVYYCAAGTYAIHDYWGLGTQVTVSS
polyreactivity (PSR sort gate): high polyreactivity

QVQLVESGGGLVQAGGSLRLSCAASGLTYSNAMGWYRQAPVKERELVAAISWRGGRTYYADSVKGRFTISRDNAKNTVYLQMNSLKPEDTAVYYCAKYAHGHKWYGYWGQGTQVTVSS
polyreactivity (PSR sort gate): low polyreactivity

QVQLVESGGGLVQAGGSLRLSCAASGMIFKFYDMGWYRQAPGKEREWVASISWSGGRTYYADSVKGRFTISRDNAKNTVYLQMNSLKPEDTAVYYCAAGRYYGYGYWGQGTQVTVSS
polyreactivity (PSR sort gate): high polyreactivity

QVQLVESGGGLVQAGGSLRLSCAASGMTFDYYAMGWYRQAPGKERELVAAIRSGGSTNYADSVKGRFTISRDNAKNTVYLQMNSLKPEDTAVYYCAAVRYFPWYDYWGQGTQVTVSS
polyreactivity (PSR sort gate): high polyreactivity

QVQLVESGGGLVQAGGSLRLSCAASGMTFTKNVMGWYRQAPGKEWELVAVISRSGGSTYYADSVKGRFTISRDNAKNTVYLQMNSLKPEDTAVYYCTVKGPGPSRGNYWGQVTQVTVSS
polyreactivity (PSR sort gate): low polyreactivity

QVQLVESGGGLVQAGGSLRLSCAASGMTFTSNVLGWYRQAHGKERELVAAISSGGSTYDADSVKGRFTMSRDNAKNTVYLQMNSLKPEDTAVYYCNSKLWGQYDYWGQGTQVTVSS
polyreactivity (PSR sort gate): low polyreactivity

QVQLVESGGGLVQAGGSLRLSCAASGMTFWSYAMGWYRQAPGKDRELVAAITIGGTTYYADSVKGRFTISRDNAKNTVYLQMNSLKPEDTAVYYCAVDSTDQAPPTYDYWGQGTQVTVSS
polyreactivity (PSR sort gate): low polyreactivity

QVQLVESGGGLVQAGGSLRLSCAASGMTLGSYAMGWDRQAPGKERELVAAISRRSGRTYYADSVKGRFTISRDNAKNTVYLKMNSLKPEDTAVFYCNRGYTAQVYTEFDDWGQGTQVTVSS
polyreactivity (PSR sort gate): low polyreactivity

QVQLVESGGGLVQAGGSLRLSCAASGNIFADYVMGWYRQAPGKERELVAAIDKSGGRTYYADSVKGRFTISRDNEKNNVYLQMNILKPEDTAVYYCSAYDRYRRMDYWGQGTQVTVSS
polyreactivity (PSR sort gate): high polyreactivity

QVQLVESGGGLVQAGGSLRLSCAASGNIFAFYAMGWYRQAPGKERELVADISWSGASTYYADSVKGRFTISRDNAKNTVYLQMNSLKPEDTAVYYCAAYATYYVIFYGDEYWGQGTQVTVSS
polyreactivity (PSR sort gate): high polyreactivity

QVQLVESGGGLVQAGGSLRLSCAASGNIFAINAMGWYRQAPGKERELVAAITWSSARTYYADSVKGRFTISRDNAKNTVYLQMNSLKPEDTAVYYCNAPALFEYDYWGQGTQVTVSS
polyreactivity (PSR sort gate): high polyreactivity

QVQLVESGGGLVQAGGSLRLSCAASGNIFAWYAMGWYRQAPGKERELVADISSRGGSTYYADSVKGRFTISRDNAKNTVYLQMNSLKPEDTAVYYCAAVWYWTQDYDYWGRGTQVTVSS
polyreactivity (PSR sort gate): low polyreactivity

QVQLVESGGGLVQAGGSLRLSCAASGNIFDAYGMGWNRQAPGKETELVAAIDWTGGSTYYADSVKGRFTISRDNAKNTVYLQMNSLKPEDTAVYYCAADWGGGYQQYGNDWVNYWGQGTQVTVSS
polyreactivity (PSR sort gate): low polyreactivity

QVQLVESGGGLVQAGGSLRLSCAASGNIFDHYAMGWYRQAPGKERELVASITDSGDSTSYADSVKGRFTISRDNAKNTVYLQMNSLKPEDTAVYYCAADPYSVYGGDYWGQGTQVTVSS
polyreactivity (PSR sort gate): low polyreactivity

QVQLVESGGGLVQAGGSLRLSCAASGNIFDLYARGWSRQAPGKERELVAAISASGGRTYYADSVKGRFTISRDNAKNTVYLQMNSLKPEDTAVYYCAAVASYGTDFYYWGQGTQVTVSS
polyreactivity (PSR sort gate): high polyreactivity

QVQLVESGGGLVQAGGSLRLSCAASGNIFDRYVMGWYRQAPGKERELVAAISVSGGSTYYADSVKGRFTISRDNAKNTVYLQMNSLKPEDTAVYYCAAHSRLINWYDYWGQGTQVTVSS
polyreactivity (PSR sort gate): high polyreactivity

QVQLVESGGGLVQAGGSLRLSCAASGNIFDVYAMGWYRQAPGKERELVAAISRSGSSTYYADSVKGRFTISRDNAKNTVYLQMNSLKQEDTAVYYCAAKISLGQRTYYYWGQGTQVTVSS
polyreactivity (PSR sort gate): high polyreactivity

QVQLVESGGGLVQAGGSLRLSCAASGNIFESYGMGGYRQAPGKERELVAAISFSGDSTYYADSVKGRFTISRDNAKNSVYLQMNSLKPEDTAVYYCATDVGYVYGYYYWGQGTQVTVSS
polyreactivity (PSR sort gate): low polyreactivity

QVQLVESGGGLVQAGGSLRLSCAASGNIFEYYAMGWYRKAPGKERELVATITSGGSTNYADSVKGRFTISRDNAKNTVYLQMNSLKPEDTAVYYCNADIISVSVYYFIVEYDYWGQGTQVTVSS
polyreactivity (PSR sort gate): low polyreactivity

QVQLVESGGGLVQAGGSLRLSCAASGNIFFSNAMGWYRQAPGKERELVASISQSGGSTYYADSVKGRFTISRDNAKNTVYLQMNSLKPEDTAVYYCAATQVRRGPAWGRDYWGQGTQVTVSS
polyreactivity (PSR sort gate): low polyreactivity

QVQLVESGGGLVQAGGSLRLSCAASGNIFGQNAMGWYRQAPGKERELVAAISSNGGRTYYADSVKGRFTISRDNAKNTVYLQMNSLKPEDTAVYYCAAEAVYAYEWYYYWGQGTQVTVSS
polyreactivity (PSR sort gate): high polyreactivity

QVQLVESGGGLVQAGGSLRLSCAASGNIFKGHVMGSYRKAPGKERELVAAISRSGGYTYYAVSVKGRFTISRDNAKNTVYLQMNSLKPADTAVYYCAAGRRLVRVVGGDYYGRYVYWGQGTQVTLSS
polyreactivity (PSR sort gate): high polyreactivity
